Data as given in paper doi:10.1101/2023.11.20.567881.

Assays:
[1] = target: yeast surface-displayed DARPin 3G146 variant 2-G4 (G150S); assay: flow cytometry on cells
[2] = target: yeast surface-displayed DARPin 3G146 variant 2-H3 (G237S); assay: flow cytometry on cells

- fold improvement of apparent binding affinity over 3G146 [1]: 8 fold
- fold improvement of apparent binding affinity over 3G146 [2]: 28 fold
Substance: EGFP-His6 (from UniProt P42212 1-238) (natural protein)
